First the molecules themselves.
B1: Azoarcus group I ribozyme (parent)
chain: GUGCCUUGCGCCGGGAAACCACGCAAGGGAUGGUGUCAAAUUCGGCGAAACCUAAGCGCCCGCCCGGGCGUAUGGCAACGCCGAGCCAAGCUUCGGCGCCUGCGCCGAUGAAGGUGUAGAGACUAGACGGCACCCACCUAAGGCAAACGCUAUGGUGAAGGCAUAGUCCAGGGAGUGGCGAAAGUCACACAAACCGG

This series covers variants of B1. As to the kind of experiment: reverse-splicing fitness (ratio to wild type); higher = more active; in vitro selection; Mg2+ level not given. In short, it runs like this:
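An in vitro group I ribozyme library with randomized positions was T7-transcribed and gel-purified. In triplicate, 10 pmol RNA in EPPS pH 7.5 was reacted with 50 pmoles of a 30-nt RNA substrate for 1 h at 37 °C across several added MgCl2 levels (1–48 mM), then stopped with EDTA. Products were reverse transcribed from a substrate-complementary primer, PCR-amplified and sequenced (HiSeq 4000). Fitness is a variant's read proportion after selection over that before, normalised to wild type.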
C82G A111U A145C C169A U176G: the reverse-splicing fitness came out at 0.00501. For the variant C82G A111U A145C C169A U176C, the reverse-splicing fitness turned out to be 0.00791. Turning to C82G A111U A120U A145U C150U C169U U176C, the reverse-splicing fitness was found to be 0.00369. The same measure for C82G A111U A120U A145U C150U C169U U176A: 0.00325; for C82G A111U A120U A145U C150U C169U U176G: 0.0023; for C82G A111U A120U A145U C150A C169A U176G: 0.00209. Turning to C82G A111U A120U A145U C150A C169A U176C, the reverse-splicing fitness is 0.00255.

On to C82G A111U A120U A145U C150A C169A U176A, for which the reverse-splicing fitness stood at 0.00349. For C82G A111U A145C C150A C169A, the reverse-splicing fitness amounted to 0.00868.

Regarding C82G A111U A145C C150A C169U, the reverse-splicing fitness was found to be 0.0105. The figure for C82G A111U A145C C150A C169G is 0.00822; for C82G A111U A120U A145G C169U it is 0.00483. For C82G A111U A120U A145G C169A, the reverse-splicing fitness is 0.00459. For C82G A111U A120U A145G C169G, the reverse-splicing fitness was 0.00479.

Turning to C82G A111U A120U C150A U176G, the reverse-splicing fitness was 0.00383. Consider C82G A111U A120U C150A U176C, for which the reverse-splicing fitness worked out at 0.00858. The figure for C82G A111U A120U C150A U176A is 0.00758; for C82G A111U A145G C169U U176A it is 0.0134; for C82G A111U A145G C169U U176G it is 0.00532. As to C82G A111U A145G C169U U176C, the reverse-splicing fitness was 0.0155.

Take C82G A111U A120U A145G C169U U176C: the reverse-splicing fitness is 0.004.

Regarding C82G A111U A120U A145G C169U U176G, the reverse-splicing fitness is 0.00203. As to C82G A111U A120U A145G C169U U176A, the reverse-splicing fitness stood at 0.00386.

C82G A111U A145U C150A U176A: the reverse-splicing fitness turned out to be 0.0235. For C82G A111U A145U C150A U176C, the reverse-splicing fitness was found to be 0.0315.

Take C82G A111U A145U C150A U176G: the reverse-splicing fitness amounted to 0.0115. Turning to C82G A111U A120U C150U C169G U176G, the reverse-splicing fitness came out at 0.00236.

As to C82G A111U A120U C150U C169G U176A, the reverse-splicing fitness came to 0.00881. The same measure for C82G A111U A120U C150U C169G U176C: 0.00433; for C82G A111U A120U C169U U176G: 0.00182. Turning to C82G A111U A120U C169U U176C, the reverse-splicing fitness was found to be 0.00393. With C82G A111U A120U C169U U176A, the reverse-splicing fitness was 0.00485.

For C82G A111U A145U C150G C169A U176G, the reverse-splicing fitness was found to be 0.00706. The figure for C82G A111U A145U C150G C169A U176A is 0.0117; for C82G A111U A145U C150G C169A U176C it is 0.0124; for C82G A111U A145G C150A C169U it is 0.0113. C82G A111U A145G C150A C169A: the reverse-splicing fitness was 0.0112. As to C82G A111U A145G C150A C169G, the reverse-splicing fitness worked out at 0.00989. Consider C82G A111U A120U A145U C169U, for which the reverse-splicing fitness stood at 0.00419. In the case of C82G A111U A120U A145U C169A, the reverse-splicing fitness was determined as 0.00258. The same measure for C82G A111U A120U A145U C169G: 0.00331; for C82G A111U A145C C150G C169A U176G: 0.00713. The same measure for C82G A111U A145C C150G C169A U176A: 0.00976; for C82G A111U A145C C150G C169A U176C: 0.00812; for C82G A111U A120U A145G C169G U176C: 0.00515.

For the variant C82G A111U A120U A145G C169G U176G, the reverse-splicing fitness stood at 0.00172. As for C82G A111U A120U A145G C169G U176A, the reverse-splicing fitness worked out at 0.00533. The figure for C82G A111U A145U C150A C169U U176C is 0.0129; for C82G A111U A145U C150A C169U U176A it is 0.0141; for C82G A111U A145U C150A C169U U176G it is 0.00579. Turning to C82G A111U A120U A145U C169A U176G, the reverse-splicing fitness stood at 0.00176. The figure for C82G A111U A120U A145U C169A U176C is 0.00203; for C82G A111U A120U A145U C169A U176A it is 0.00292; for C82G A111U A145C C150A C169G U176G it is 0.00716. Take C82G A111U A145C C150A C169G U176A: the reverse-splicing fitness came to 0.0227.

On to C82G A111U A145C C150A C169G U176C, for which the reverse-splicing fitness stood at 0.0155.

With C82G A111U A120U A145G C150U C169G U176C, the reverse-splicing fitness is 0.00575. On to C82G A111U A120U A145G C150U C169G U176G, for which the reverse-splicing fitness was 0.00266.

For C82G A111U A120U A145G C150U C169G U176A, the reverse-splicing fitness came to 0.00833. With C82G A111U A145C C150A C169U U176A, the reverse-splicing fitness came to 0.0163. The figure for C82G A111U A145C C150A C169U U176G is 0.00599. The figure for C82G A111U A145C C150A C169U U176C is 0.00987. The figure for C82G A111U A120U A145U C150A C169U U176G is 0.00195. As to C82G A111U A120U A145U C150A C169U U176C, the reverse-splicing fitness stood at 0.00276. The same measure for C82G A111U A120U A145U C150A C169U U176A: 0.00313; for C82G A111U A145C C150G U176G: 0.00504; for C82G A111U A145C C150G U176A: 0.0157. Consider C82G A111U A145C C150G U176C, for which the reverse-splicing fitness worked out at 0.0238.

As for C82G A111U A145G C150A C169G U176C, the reverse-splicing fitness was found to be 0.0282.

In the case of C82G A111U A145G C150A C169G U176A, the reverse-splicing fitness was 0.0179. The same measure for C82G A111U A145G C150A C169G U176G: 0.00671. The figure for C82G A111U A120U U176G is 0.00464.

C82G A111U A120U U176A: the reverse-splicing fitness was determined as 0.0109. The figure for C82G A111U A120U U176C is 0.0167; for C82G A111U A120U A145U C150U it is 0.0274; for C82G A111U A120U A145U C150G it is 0.00782.

As to C82G A111U A120U A145U C150A, the reverse-splicing fitness turned out to be 0.00721. For C82G A111U A120U C150G, the reverse-splicing fitness was found to be 0.00761. Turning to C82G A111U A120U C150U, the reverse-splicing fitness is 0.0256. The figure for C82G A111U A120U C150A is 0.00965; for C82G A111U A120U A145U C150G U176C it is 0.006. The same measure for C82G A111U A120U A145U C150G U176G: 0.00246; for C82G A111U A120U A145U C150G U176A: 0.00373.

The record behind these values is the RNAGym collection of RNA variant scans (doi:10.1093/molbev/msab373).
